# In patent US20070134249A1 (GENITOPE, published 2007):
# Tests used:
# [1] = biological target: T1, 591; assay: ELISA
# T1 construct: H3-23 K4-1; also called PIN591
# From the text: (§1) Before specificity screening, all of the clonal immunogen-positive hybridoma supernatants were re-screened on the immunogen, a non-family member Id protein, and KLH, if animals were immunized with Id protein that has been conjugated KLH. As described above, this screen identifies HC-specific clones but not mAbs against the light chain constant region. Clones identified positive to the immunogen and KLH were […]. Those found positive to the immunogen but not to the non-family member Id protein or KLH were tittered on the immunogen. In addition to normalizing for different binding affinities and concentrations, each hybridoma supernatant was titered on the fully human form of the Id protein used as the immunogen(s) for the V regions. The titer or dilution resulting in an ELISA absorbance of 2.5 to 3 OD after 30 min. incubation time was then used. Hybridoma specificity was determined by screening against available Id proteins expressing the same HV and KV or LV as well as different HV, KV and LV. The final ELISA results are expressed as follows: 0 (<0.5 OD), 1 (0.5-1.0 OD), or 4 (1-4 OD). Positive hybridoma supernatants are categorized according to specificity: anti-Id, anti-constant region (HC, KC or LC), or V region (HV, KV, LV family or family member).
# (§2) In general, the fully human Id protein or proteins containing the immunogen V regions were coated onto 96-well ELISA plates at 2.5-5 ug/mL in carbonate buffer pH 9.6 and incubated at 4° C. for up to 14 days. On the day of the ELISA, plates were brought to RT and blocked with Tris-Tween-20, pH 7.6 for 15-60 min. at RT. Following a NaCl and Triton X-100 wash, diluted hybridoma cell culture supernatants were incubated overnight at 4° C. Hybridoma supernatant dilutions ranged from 1:2 to 1:25 and were prepared in PBS with 5% BSA. Plates were washed and incubated with HRP-conjugated goat anti-mouse IgG-specific detecting antibody. A chromogenic substrate (TMB) was used to measure the amount of mouse antibody bound to each well. The reaction was stopped at or before 30 minutes with IN H2SO4 and plates were read immediately. Absorbency readings at 450 nm ranging between 0-4 OD and using Molecular Devices plate reader and SOFTMAX PRO software.
# [2] = biological target: T2, 850; assay: ELISA
# T2 construct: H3-23 K2-30; also called PIN850
# From the text: as §1, §2
# [3] = biological target: T3, 352; assay: ELISA
# T3 construct: H3-23 K1-39; also called PIN352
# From the text: as §1, §2
# [4] = biological target: T4, 571; assay: ELISA
# T4 construct: H3-23 K3-11; also called PIN571
# From the text: as §1, §2
# [5] = biological target: T5, 551; assay: ELISA
# T5 construct: H3-23 L1-40; also called PIN551
# From the text: as §1, §2
# [6] = biological target: T6, 778; assay: ELISA
# T6 construct: H3-23 K3-11; also called PIN778
# From the text: as §1, §2
# [7] = biological target: T7, 128; assay: ELISA
# T7 construct: H3-23 K1-27; also called PIN128
# From the text: as §1, §2
# [8] = biological target: T8, 617; assay: ELISA
# T8 construct: H3-23, VL 1-44, LC printed K; also called PIN617
# From the text: as §1, §2
# [9] = biological target: T9, 547; assay: ELISA
# T9 construct: also called PIN547
# From the text: as §1, §2
# [10] = biological target: T10, 210; assay: ELISA
# T10 construct: H3-23 K3-11; also called PIN210
# From the text: as §1, §2
# [11] = biological target: T11, 540; assay: ELISA
# T11 construct: H3-23 K3-20; also called PIN540
# From the text: as §1, §2
# [12] = biological target: T12, 232; assay: ELISA
# T12 construct: H3-23 K1-6; also called PIN232
# From the text: as §1, §2
# [13] = biological target: T13, 576; assay: ELISA
# T13 construct: H3-23 L1-51; also called PIN576
# From the text: as §1, §2
# [14] = biological target: T14, 522; assay: ELISA
# T14 construct: H3-23 L1-40; also called PIN522
# From the text: as §1, §2
# [15] = biological target: T15, 834; assay: ELISA
# T15 construct: H3-23 K1-5; also called PIN834
# From the text: as §1, §2
# [16] = biological target: T16, 203; assay: ELISA
# T16 construct: H3-23 L1-47; also called PIN203
# From the text: as §1, §2
# [17] = biological target: T17, 213; assay: ELISA
# T17 construct: H3-23 L1-51; also called PIN213
# From the text: as §1, §2
# [18] = biological target: T18, PIN149 fully human Id protein (HV3-23 / KV4-1) (human); assay: ELISA
# T18 construct: Recombinant patient-derived idiotype immunoglobulin used as antigen; also called PIN149 Id protein; Immunogen (for 3C9, 6C9, 10H7, 15E1); not shown: human immunoglobulin heavy chain constant region, isotype G3 (HCG3); human immunoglobulin kappa light chain constant region (KC)
# T18 sequence (VH, as listed by the source, chain 1 of 2): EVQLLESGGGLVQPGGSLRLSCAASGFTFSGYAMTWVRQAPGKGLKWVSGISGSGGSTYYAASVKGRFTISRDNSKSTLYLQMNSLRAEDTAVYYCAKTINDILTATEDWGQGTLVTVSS
# T18 sequence (VL, as listed by the source, chain 2 of 2): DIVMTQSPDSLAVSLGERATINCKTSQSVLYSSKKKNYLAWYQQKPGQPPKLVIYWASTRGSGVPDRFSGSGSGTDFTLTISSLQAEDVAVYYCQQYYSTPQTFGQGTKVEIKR
# From the text: as §1, §2
# [19] = biological target: T18, PIN149 fully human Id protein (HV3-23 / …); assay: SPR (BIACORE 2000); mAb captured on anti-mouse surface, fully human Id protein as analyte, 25 C
# Protocol: (§3) Binding constants were also determined for three of the sequenced clones (3C9, 10H7, and 20H5), as well as for two additional clones (6C9 and 15E1). The association and disassociation rates were measured by surface plasmon resonance using a BIACORE 2000 machine.
# (§4) In addition, based on ELISA results, PIN185 was used as a positive control Id protein for 10H7 and 15E1 and a negative control Id protein for 3C9 and 6C9 and PIN149 was used as a non-binding Id protein for 20H5. Each mAb was captured onto an anti-mouse surface and tested for binding to the fully human Id protein. Following the mAb capture phase of the assay for the (@2 ug/ml), the fully human Id proteins were all diluted to a starting concentration of 250 nM and tested in a three fold dilution series. Each concentration was tested in duplicate. The running buffer contained PBS plus 0.005% tween-20 and 0.1 mg/ml BSA as a carrier. Binding data were collected at 25° C. […] The other data sets all fit well to a single site interaction model.
# [20] = biological target: T19, 626; assay: ELISA
# T19 construct: H5-51 K4-1; also called PIN626
# From the text: as §1, §2
# [21] = biological target: T20, 112; assay: ELISA
# T20 construct: H4-39 K4-1; also called PIN112
# From the text: as §1, §2
# [22] = biological target: T21, 199; assay: ELISA
# T21 construct: H3-7 K4-1; also called PIN199
# From the text: as §1, §2
# [23] = biological target: T22, 529; assay: ELISA
# T22 construct: H3-48 K4-1; also called PIN529
# From the text: as §1, §2
# [24] = biological target: T23, 659; assay: ELISA
# T23 construct: H3-21 K4-1; also called PIN659
# From the text: as §1, §2
# [25] = biological target: T24, 628; assay: ELISA
# T24 construct: fully human Id protein; also called PIN628
# T24 sequence (VH, as listed by the source, chain 1 of 2): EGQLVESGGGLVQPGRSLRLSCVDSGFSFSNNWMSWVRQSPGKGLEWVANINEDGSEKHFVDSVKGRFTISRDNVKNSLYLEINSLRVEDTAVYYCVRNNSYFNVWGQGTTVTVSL
# T24 sequence (VL, as listed by the source, chain 2 of 2): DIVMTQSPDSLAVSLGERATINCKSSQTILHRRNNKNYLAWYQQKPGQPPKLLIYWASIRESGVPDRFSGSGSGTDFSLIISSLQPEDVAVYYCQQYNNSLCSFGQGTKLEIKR
# From the text: as §1, §2
# [26] = biological target: T25, 763; assay: ELISA
# T25 construct: H4-59 K4-1; also called PIN763
# From the text: as §1, §2
# [27] = biological target: T26, 791; assay: ELISA
# T26 construct: H3-30 K4-1; also called PIN791
# From the text: as §1, §2
# [28] = biological target: T27, 844; assay: ELISA
# T27 construct: H3-7 K4-1; also called PIN844
# From the text: as §1, §2
# [29] = biological target: T28, 170; assay: ELISA
# T28 construct: H4-34 K4-1; also called PIN170
# From the text: as §1, §2
# [30] = biological target: T29, 179; assay: ELISA
# T29 construct: H3-11 K4-1; also called PIN179
# From the text: as §1, §2
# [31] = biological target: T30, 192; assay: ELISA
# T30 construct: H5-51 K4-1; also called PIN192
# From the text: as §1, §2
# [32] = biological target: T31, 204; assay: ELISA
# T31 construct: H3-15 K4-1; also called PIN204
# From the text: as §1, §2
# [33] = biological target: T32, 792; assay: ELISA
# T32 construct: H1-3 K4-1; also called PIN792
# From the text: as §1, §2
# [34] = biological target: T33, 839; assay: ELISA
# T33 construct: H3-23 K4-1; also called PIN839
# From the text: as §1, §2
# [35] = biological target: T34, 898; assay: ELISA
# T34 construct: H3-15 K4-1; also called PIN898
# From the text: as §1, §2
# [36] = biological target: T35, 950; assay: ELISA
# T35 construct: H4-59 K4-1; also called PIN950
# From the text: as §1, §2
# [37] = biological target: T36, 952; assay: ELISA
# T36 construct: H3-66 K4-1; also called PIN952
# From the text: as §1, §2
# [38] = biological target: T37, 987; assay: ELISA
# T37 construct: H3-23 K4-1; also called PIN987
# From the text: as §1, §2
# [39] = biological target: T38, 1014; assay: ELISA
# T38 construct: H3-53 K4-1; also called PIN1014
# From the text: as §1, §2
# [40] = biological target: T39, 1023; assay: ELISA
# T39 construct: H4-4 K4-1; also called PIN1023
# From the text: as §1, §2
# [41] = biological target: T40, 1088; assay: ELISA
# T40 construct: H2-5 K4-1; also called PIN1088
# From the text: as §1, §2
# [42] = biological target: T41, 1145; assay: ELISA
# T41 construct: H3-11 K4-1; also called PIN1145
# From the text: as §1, §2
# [43] = biological target: T42, 1154; assay: ELISA
# T42 construct: H4-61 K4-1; also called PIN1154
# From the text: as §1, §2
# [44] = biological target: T43, 913; assay: ELISA
# T43 construct: fully human Id protein; also called PIN913
# T43 sequence (heavy, as listed by the source): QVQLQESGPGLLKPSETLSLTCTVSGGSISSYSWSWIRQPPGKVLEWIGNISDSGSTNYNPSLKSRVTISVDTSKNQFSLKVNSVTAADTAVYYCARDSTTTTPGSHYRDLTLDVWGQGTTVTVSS
# From the text: as §1, §2
# [45] = biological target: T44, PIN185 fully human Id protein (human); assay: ELISA
# T44 construct: Patient-derived idiotype immunoglobulin used as control antigen in SPR
# From the text: as §1, §2
# [46] = biological target: T44, PIN185 fully human Id protein; assay: SPR (BIACORE 2000); mAb captured on anti-mouse surface, fully human Id protein as analyte, 25 C
# Protocol: as §3, §4
binder,measurement,setting,value
"mAb clone 3C9 (antibody, V domains shown, Mouse hybridoma mAb, fusions 13/14 (immunogen PIN149 chimera-KLH); also called anti-IGHV3-23 monoclonal 3C9) VH: EVQLQQSGPELEKPGASVKISCKASGYSFTAYNMNWVKQNNGKSLEWIGNIDPYHGGTNYNQKFKGKATLTVDKSSSTAYMQLKSLTSEDYAVYYCARGGGDWSWFAYWGQGTLVTVSA VL: DIVMTQSHKFMSTSVGDRVSITCKASQDVNTAVAWYQQKPGQSPKVLIYWASNRHTGVPDRFTGSGSGTDYTLTISSMQAEDLALYYCHQHYSTPWTFGGGTKLEIER",grade,[1],4
same,grade,[2],4
same,grade,[3],4
same,grade,[4],4
same,grade,[5],4
same,grade,[6],4
same,grade,[7],4
same,grade,[8],4
same,grade,[9],4
same,grade,[10],4
same,grade,[11],4
same,grade,[12],4
same,grade,[13],4
same,grade,[14],4
same,grade,[15],4
same,grade,[16],4
same,grade,[17],1
same,grade,[18],4
same,Kd,[19],1.78 nM
same,koff,[19],0.000134 s⁻¹
same,kon,[19],74900 M⁻¹ s⁻¹
"mAb clone 10H7 (antibody, V domains shown, Mouse hybridoma mAb, fusions 13/14 (immunogen PIN149 chimera-KLH)) VH: EVQLVESGGGLVKPGGSLKLSCTASGFTFSSYAMSWVRQSPEKRLEWVAEISSGGIHTYYSDTVTGRFSISRDNAKNSTLYLEMNSLRSEDTAIYYCARETTGTWGQGTLVTVSA VL: QIVLTQSPAIMSASPGEKVTMTCSVSSSITYMHWFRQKPGTSPKLWIYTTSNLASGVPARFSGSGSGTSYSLTISRMEAEDAATYYCQQRSRYPFTFGSGTKLEIKR",grade,[1],4
same,grade,[20],4
same,grade,[21],4
same,grade,[22],4
same,grade,[23],4
same,grade,[24],4
same,grade,[25],4
same,grade,[26],4
same,grade,[27],4
same,grade,[28],4
same,grade,[29],4
same,grade,[30],4
same,grade,[31],4
same,grade,[32],4
same,grade,[33],4
same,grade,[34],4
same,grade,[35],4
same,grade,[36],4
same,grade,[37],4
same,grade,[38],4
same,grade,[39],4
same,grade,[40],4
same,grade,[41],4
same,grade,[42],4
same,grade,[43],4
same,grade,[44],4
same,grade,[18],4
same,grade,[45],4
same,Kd,[19],0.83 nM
same,koff,[19],3.8e-05 s⁻¹
same,kon,[19],45400 M⁻¹ s⁻¹
same,Kd,[46],3 nM
same,koff,[46],9.9e-05 s⁻¹
same,kon,[46],33200 M⁻¹ s⁻¹
